B1: LINE1-mini (parent)
chain: GGCAGAGCUCAACACAGCGUGGCAAAGUGGCUGUGGCUAGACUGCC

The values below come from the RNAGym collection of RNA variant scans (doi:10.7554/elife.90254).

In this data set the parent is B1. The experiment in a line: self-cleavage, relative activity (ratio to wild type); higher = more cleavage; in vitro, sequencing; the parent is a self-cleaving ribozyme.
GGCAGAGCUCAACACAGCAAGGCAAAGUGGCUGUGGCUAGACUGCC: the self-cleavage is 0.51.
The figure for GGCAGAGCUCAACACAGCAGGGCAAAGUGGCUGUGGCUAGACUGCC is 0.59.
With GGCAGAGCUCAACACAGCACGGCAAAGUGGCUGUGGCUAGACUGCC the figure was 0.46.
The figure for GGCAGAGCUCAACACAGCAUGGAAAAGUGGCUGUGGCUAGACUGCC is 0.96; for GGCAGAGCUCAACACAGCAUGGGAAAGUGGCUGUGGCUAGACUGCC it is 0.41; for GGCAGAGCUCAACACAGCAUGGUAAAGUGGCUGUGGCUAGACUGCC it is 1.06.
Regarding GGCAGAGCUCAACACAGCCUGGCGAAGUGGCUGUGGCUAGACUGCC, the self-cleavage is 0.53.
The figure for GGCAGAGCUCAACACAGCCUGGCUAAGUGGCUGUGGCUAGACUGCC is 0.6; for GGCAGAGCUCAACACAGCCUGGCCAAGUGGCUGUGGCUAGACUGCC it is 0.34.
In the case of GGCAGAGCUCAACACAGCAUGGCAAAGUGGCUGUGGCUAGAUUGCC, the self-cleavage was found to be 0.43.
With GGCAGAGCUCAACACAGCAUGGCAAAGUGGCUGUGGCUAGAGUGCC the figure was 0.04.
With GGCAGAGCUCAACACAGCAUGGCAAAGUGGCUGUGGCUAGAAUGCC the figure was 0.34; with GGCAGAGCUCAACACAGCAUGGCAAAGUGGCUGUGGCUAGACUCCC, 0.48; with GGCAGAGCUCAACACAGCAUGGCAAAGUGGCUGUGGCUAGACUUCC, 0.51.
As to GGCAGAGCUCAACACAGCAUGGCAAAGUGGCUGUGGCUAGACUACC, the self-cleavage is 0.75.
With GGCAGAGCUCAACACAGCAUGGCAAAGUGGCAGUGGCUAGACUGCC the figure was 0.15; with GGCAGAGCUCAACACAGCAUGGCAAAGUGGCGGUGGCUAGACUGCC, 0.1; with GGCAGAGCUCAACACAGCAUGGCAAAGUGGCCGUGGCUAGACUGCC, 0.12.
For the variant GGCAGAGCUCAACACAGCAUGGCAAAGUGGCUGUGGCUAGACCGCC, the self-cleavage worked out at 0.18.
The figure for GGCAGAGCUCAACACAGCAUGGCAAAGUGGCUGUGGCUAGACAGCC is 0.15; for GGCAGAGCUCAACACAGCAUGGCAAAGUGGCUGUGGCUAGACGGCC it is 0.06; for GGCAGAGCUCAACACAGCAUGGCAAAGUGGCUUUGGCUAGACUGCC it is 0.15.
With GGCAGAGCUCAACACAGCAUGGCAAAGUGGCUCUGGCUAGACUGCC the figure was 0.05; with GGCAGAGCUCAACACAGCAUGGCAAAGUGGCUAUGGCUAGACUGCC, 0.11; with GGCAGAGCUCAACACAGCCUGGCAAAGUGGCUGUGGCUAGACUGGC, 0.17.
The figure for GGCAGAGCUCAACACAGCCUGGCAAAGUGGCUGUGGCUAGACUGAC is 0.47.
With GGCAGAGCUCAACACAGCCUGGCAAAGUGGCUGUGGCUAGACUGUC, the self-cleavage is 0.79.
The figure for GGCAGAGCUCAACACAGCAUGGCAAAGUGCCUGUGGCUAGACUGCC is 1.5; for GGCAGAGCUCAACACAGCAUGGCAAAGUGACUGUGGCUAGACUGCC it is 1.99; for GGCAGAGCUCAACACAGCAUGGCAAAGUGUCUGUGGCUAGACUGCC it is 2.03.
With GGCAGAGCUCAACACAGCAUGGCAAAGUGGUUGUGGCUAGACUGCC the figure was 0.6; with GGCAGAGCUCAACACAGCAUGGCAAAGUGGAUGUGGCUAGACUGCC, 0.46.
With GGCAGAGCUCAACACAGCAUGGCAAAGUGGGUGUGGCUAGACUGCC the figure was 0.17; with GGCAGAGCUCAACACAGCAUGGCAAAGUGGCUGUGCCUAGACUGCC, 0.16.
With GGCAGAGCUCAACACAGCAUGGCAAAGUGGCUGUGUCUAGACUGCC, the self-cleavage worked out at 0.09.
The figure for GGCAGAGCUCAACACAGCAUGGCAAAGUGGCUGUGACUAGACUGCC is 0.18.
The figure for GGCAGAGCUCAACACAGCCUGGCAAAGUGGCUGUGGCUGGACUGCC is 0.02; for GGCAGAGCUCAACACAGCCUGGCAAAGUGGCUGUGGCUUGACUGCC it is 0.28; for GGCAGAGCUCAACACAGCCUGGCAAAGUGGCUGUGGCUCGACUGCC it is 0.05.
GGCAGAGCUCAACACAGCAUGGCAAAGUGGCUGUGGCUAGGCUGCC: the self-cleavage was found to be 0.29.
With GGCAGAGCUCAACACAGCAUGGCAAAGUGGCUGUGGCUAGUCUGCC the figure was 0.77.
With GGCAGAGCUCAACACAGCAUGGCAAAGUGGCUGUGGCUAGCCUGCC the figure was 0.08; with GGCAGAGCUCAACACAGCCUGGCAAGGUGGCUGUGGCUAGACUGCC, 0.27; with GGCAGAGCUCAACACAGCCUGGCAAUGUGGCUGUGGCUAGACUGCC, 0.37.
With GGCAGAGCUCAACACAGCCUGGCAACGUGGCUGUGGCUAGACUGCC the figure was 0.68; with GGCAGAGCUCAACACAGCCUGGCAAAGUGGCUGUGGCUAGACUGCC, 0.5.
In the case of GGCAGAGCUCAACACAGCAUGGCAAAGUGGCUGUGGCUAGACUGCU, the self-cleavage was 1.74.
The figure for GGCAGAGCUCAACACAGCAUGGCAAAGUGGCUGUGGCUAGACUGCG is 1.53; for GGCAGAGCUCAACACAGCAUGGCAAAGUGGCUGUGGCUAGACUGCA it is 0.81; for GGCAGAGCUCAACACAGCAUUGCAAAGUGGCUGUGGCUAGACUGCC it is 0.72.
With GGCAGAGCUCAACACAGCAUAGCAAAGUGGCUGUGGCUAGACUGCC the figure was 2.83.
The figure for GGCAGAGCUCAACACAGCAUCGCAAAGUGGCUGUGGCUAGACUGCC is 0.39.
With GGCAGAGCUCAACACAGCAUGGCAAAGUGGCUGUGGCUAUACUGCC, the self-cleavage was found to be 0.16.
For GGCAGAGCUCAACACAGCAUGGCAAAGUGGCUGUGGCUAAACUGCC, the self-cleavage came to 0.11.
The figure for GGCAGAGCUCAACACAGCAUGGCAAAGUGGCUGUGGCUACACUGCC is 0.07; for GGCAGAGCUCAACACAGCAUGGCAAAGUGGCUGUGGCUAGACUGAC it is 0.79; for GGCAGAGCUCAACACAGCAUGGCAAAGUGGCUGUGGCUAGACUGUC it is 1.74.
With GGCAGAGCUCAACACAGCAUGGCAAAGUGGCUGUGGCUAGACUGGC the figure was 0.38.
The figure for GGCAGAGCUCAACACAGCAUGGCAAAGUUGCUGUGGCUAGACUGCC is 0.94; for GGCAGAGCUCAACACAGCAUGGCAAAGUCGCUGUGGCUAGACUGCC it is 1.31.
As to GGCAGAGCUCAACACAGCAUGGCAAAGUAGCUGUGGCUAGACUGCC, the self-cleavage stood at 1.14.
Take GGCAGAGCUCAACACAGCAUGGCAAAGUGGCUGUGGCUUGACUGCC: the self-cleavage was found to be 1.35.
With GGCAGAGCUCAACACAGCAUGGCAAAGUGGCUGUGGCUCGACUGCC the figure was 0.75; with GGCAGAGCUCAACACAGCAUGGCAAAGUGGCUGUGGCUGGACUGCC, 0.1.
The figure for GGCAGAGCUCAACACAGCCUCGCAAAGUGGCUGUGGCUAGACUGCC is 0.27; for GGCAGAGCUCAACACAGCCUAGCAAAGUGGCUGUGGCUAGACUGCC it is 0.51.
For GGCAGAGCUCAACACAGCCUUGCAAAGUGGCUGUGGCUAGACUGCC, the self-cleavage was determined as 0.47.
With GGCAGAGCUCAACACAGCCUGGCAAAGUGGCUGUGGCUAGAUUGCC the figure was 0.25; with GGCAGAGCUCAACACAGCCUGGCAAAGUGGCUGUGGCUAGAAUGCC, 0.14; with GGCAGAGCUCAACACAGCCUGGCAAAGUGGCUGUGGCUAGAGUGCC, 0.01.
With GGCAGAGCUCAACACAGCCUGGCAAAGUGGGUGUGGCUAGACUGCC the figure was 1.26; with GGCAGAGCUCAACACAGCCUGGCAAAGUGGUUGUGGCUAGACUGCC, 0.58.
The figure for GGCAGAGCUCAACACAGCCUGGCAAAGUGGAUGUGGCUAGACUGCC is 0.63.
On to GGCAGAGCUCAACACAGCAUGGCAAAGUGGCUGUGGGUAGACUGCC, for which the self-cleavage came to 0.03.
The figure for GGCAGAGCUCAACACAGCAUGGCAAAGUGGCUGUGGAUAGACUGCC is 0.07; for GGCAGAGCUCAACACAGCAUGGCAAAGUGGCUGUGGUUAGACUGCC it is 0.05.
With GGCAGAGCUCAACACAGCAUGGCAAACUGGCUGUGGCUAGACUGCC the figure was 0.53.
The figure for GGCAGAGCUCAACACAGCAUGGCAAAUUGGCUGUGGCUAGACUGCC is 0.93; for GGCAGAGCUCAACACAGCAUGGCAAAAUGGCUGUGGCUAGACUGCC it is 1.19; for GGCAGAGCUCAACACAGCAUGGCAAAGCGGCUGUGGCUAGACUGCC it is 0.51.
Turning to GGCAGAGCUCAACACAGCAUGGCAAAGAGGCUGUGGCUAGACUGCC, the self-cleavage is 1.57.
GGCAGAGCUCAACACAGCAUGGCAAAGGGGCUGUGGCUAGACUGCC: the self-cleavage was 1.04.
With GGCAGAGCUCAACACAGCAUGGCAAUGUGGCUGUGGCUAGACUGCC the figure was 1.89.
As for GGCAGAGCUCAACACAGCCUGGCAGAGUGGCUGUGGCUAGACUGCC, the self-cleavage turned out to be 0.26.
With GGCAGAGCUCAACACAGCCUGGCAUAGUGGCUGUGGCUAGACUGCC the figure was 0.26; with GGCAGAGCUCAACACAGCCUGGCACAGUGGCUGUGGCUAGACUGCC, 0.5; with GGCAGAGCUCAACACAGCAUGGCAAAGUGGCUGUAGCUAGACUGCC, 0.18.
Take GGCAGAGCUCAACACAGCAUGGCAAAGUGGCUGUCGCUAGACUGCC: the self-cleavage turned out to be 0.21.
With GGCAGAGCUCAACACAGCAUGGCAAAGUGGCUGUUGCUAGACUGCC the figure was 0.14.
The figure for GGCAGAGCUCAACACAGCAUGUCAAAGUGGCUGUGGCUAGACUGCC is 0.99; for GGCAGAGCUCAACACAGCAUGACAAAGUGGCUGUGGCUAGACUGCC it is 0.62.
With GGCAGAGCUCAACACAGCAUGCCAAAGUGGCUGUGGCUAGACUGCC the figure was 0.71; with GGCAGAGCUCAACACAGCCUGGAAAAGUGGCUGUGGCUAGACUGCC, 0.37.
With GGCAGAGCUCAACACAGCCUGGUAAAGUGGCUGUGGCUAGACUGCC, the self-cleavage amounted to 0.83.
The figure for GGCAGAGCUCAACACAGCCUGGGAAAGUGGCUGUGGCUAGACUGCC is 0.42.
With GGCAGAGCUCAACACAGCAUGGCAAAGUGGCUGCGGCUAGACUGCC the figure was 0.43; with GGCAGAGCUCAACACAGCAUGGCAAAGUGGCUGGGGCUAGACUGCC, 0.29.
The figure for GGCAGAGCUCAACACAGCAUGGCAAAGUGGCUGAGGCUAGACUGCC is 0.1; for GGCAGAGCUCAACACAGCCUGGCAAAGUGGCUGUGGCUAGACUGCA it is 0.52; for GGCAGAGCUCAACACAGCCUGGCAAAGUGGCUGUGGCUAGACUGCU it is 1.42.
In the case of GGCAGAGCUCAACACAGCCUGGCAAAGUGGCUGUGGCUAGACUGCG, the self-cleavage came to 0.23.
GGCAGAGCUCAACACAGCCUGGCAAAGUGGCUGUGGCUAGCCUGCC: the self-cleavage was 0.05.
With GGCAGAGCUCAACACAGCCUGGCAAAGUGGCUGUGGCUAGGCUGCC the figure was 0.03; with GGCAGAGCUCAACACAGCCUGGCAAAGUGGCUGUGGCUAGUCUGCC, 0.19.
The figure for GGCAGAGCUCAACACAGCCUGCCAAAGUGGCUGUGGCUAGACUGCC is 0.32.
The figure for GGCAGAGCUCAACACAGCCUGACAAAGUGGCUGUGGCUAGACUGCC is 0.39; for GGCAGAGCUCAACACAGCAUGGCAAAGUGGCUGUGGCCAGACUGCC it is 1.09; for GGCAGAGCUCAACACAGCAUGGCAAAGUGGCUGUGGCAAGACUGCC it is 0.82.
GGCAGAGCUCAACACAGCAUGGCAAAGUGGCUGUGGCGAGACUGCC: the self-cleavage was 0.02.
With GGCAGAGCUCAACACAGCCUGGCAAAGUGGCUGUGGGUAGACUGCC the figure was 0.02; with GGCAGAGCUCAACACAGCCUGGCAAAGUGGCUGUGGAUAGACUGCC, 0.04.
The figure for GGCAGAGCUCAACACAGCCUGGCAAAGUGGCUGUGGUUAGACUGCC is 0.03.
